Reference: paper doi:10.1101/2025.05.18.654456

Molecular target: F-actin (actin purified from rabbit white skeletal muscle, polymerised) (rabbit), P68135
Assay: co-sedimentation; various concentrations of His-α-actinin in A50 buffer (50 mM HEPES-KOH pH 7.6, 50 mM KCl, 5 mM MgCl2, 1 mM EGTA) mixed with 10 μM G-actin on ice, 25°C for 60 min to polymerise actin, centrifuged at 100,000 ×g for 10 min at 25°C; supernatant and pellet on SDS-PAGE, Coomassie; model fitting; apparent dissociation constant
Conditions: remark: other sources report otherwise

B1: Recombinant human α-actinin I (6×His-tagged), P12814 1-892 (natural protein)
chain: MDHYDSQQTNDYMQPEEDWDRDLLLDPAWEKQQRKTFTAWCNSHLRKAGTQIENIEEDFRDGLKLMLLLEVISGERLAKPERGKMRVHKISNVNKALDFIASKGVKLVSIGAEEIVDGNVKMTLGMIWTIILRFAIQDISVEETSAKEGLLLWCQRKTAPYKNVNIQNFHISWKDGLGFCALIHRHRPELIDYGKLRKDDPLTNLNTAFDVAEKYLDIPKMLDAEDIVGTARPDEKAIMTYVSSFYHAFSGAQKAETAANRICKVLAVNQENEQLMEDYEKLASDLLEWIRRTIPWLENRVPENTMHAMQQKLEDFRDYRRLHKPPKVQEKCQLEINFNTLQTKLRLSNRPAFMPSEGRMVSDINNAWGCLEQVEKGYEEWLLNEIRRLERLDHLAEKFRQKASIHEAWTDGKEAMLRQKDYETATLSEIKALLKKHEAFESDLAAHQDRVEQIAAIAQELNELDYYDSPSVNARCQKICDQWDNLGALTQKRREALERTEKLLETIDQLYLEYAKRAAPFNNWMEGAMEDLQDTFIVHTIEEIQGLTTAHEQFKATLPDADKERLAILGIHNEVSKIVQTYHVNMAGTNPYTTITPQEINGKWDHVRQLVPRRDQALTEEHARQQHNERLRKQFGAQANVIGPWIQTKMEEIGRISIEMHGTLEDQLSHLRQYEKSIVNYKPKIDQLEGDHQLIQEALIFDNKHTNYTMEHIRVGWEQLLTTIARTINEVENQILTRDAKGISQEQMNEFRASFNHFDRDHSGTLGPEEFKACLISLGYDIGNDPQGEAEFARIMSIVDPNRLGVVTFQAFIDFMSRETADTDTADQVMASFKILAGDKNYITMDELRRELPPDQAEYCIARMAPYTGPDSVPGALDYMSFSTALYGESDL
Kd: 1.4 µM
